The source of these data is patent publication US20250340623A1 (AC IMMUNE, published 2025).

The target in one assay is alpha-synuclein fibrils (UniProt P37840 1-140). The experiment in a line: SPR, captured mAb. As for the experimental part: (§1) Non-covalent immobilization of alpha-synuclein antibodies was performed using a target immobilization method of 2000 response units (RU). Antibodies were diluted in 10 mM sodium acetate pH 5.5 (GE Healthcare, BR-1003-52) to a final concentration of 5 μg/mL.
(§2) Binding affinity of alpha-synuclein antibodies to monomeric or fibrillar alpha-synuclein species was performed using a single-cycle kinetics method. The instrument was primed with 1×HBS-P+ buffer (10× stock from GE Healthcare, BR-1003-52 diluted in Milli-Q water). Injections of monomeric alpha-synuclein (aSyn) (Boston Biochem, SP-485), increasing in concentration from 0.62-50 nM prepared from serial 2-fold dilutions, were performed with contact times of 300 sec/injection at a flow rate of 30 μL/min. A dissociation phase of 900 sec followed the final 50 nM injection. Regeneration of the sensor to the goat anti-mouse antibody layer was achieved using 3 regenerations of 10 mM Glycine pH 1.7. […] Regeneration of the sensor to the goat anti-mouse antibody layer was achieved using 3 regenerations of 10 mM Glycine pH 1.7. Results obtained from single-cycle kinetics were evaluated by Biacore T200 evaluation software with 1:1 binding homogenous Langmuir model (with a global Rmax) with Cycle 5 as a blank subtraction. The following kinetic parameters were obtained: on-rate (ka), off-rate (kd), affinity constant (KD, ratio of kd by ka), maximum response (Rmax), and goodness of fit (Chi2).
(§3) Non-covalent capture of the alpha-synuclein antibodies was performed in three separate runs.
For orientation: Surface plasmon resonance follows binding to a sensor surface in real time, without labels.

Assay [1] concerns the target monomeric alpha-synuclein (UniProt P37840 1-140). The assay can be described thus: SPR, captured mAb. As for the experimental part:
as §1, §2, §3

B1: ACI-7079-3107E6-Ab1 (antibody, V domains shown)
VH: QVTLKESGPGILQPSQTLSLTCSFSGFSLSTFGMGVGWIRQPSGKGLEWLTHIWWDDDKYYNPALKSRLTISKDASKNQMFLKIANVDTADTATYFCARIGDYYGSRGFFDVWGTGTTVTVSS
VL: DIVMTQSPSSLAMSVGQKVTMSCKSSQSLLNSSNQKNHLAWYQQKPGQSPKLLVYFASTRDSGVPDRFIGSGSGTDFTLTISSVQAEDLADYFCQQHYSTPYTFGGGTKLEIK
notes: mouse hybridoma mAb; VH/VL only; also called 3107E6A3
For B1, in the assay with alpha-synuclein fibrils, the affinity, expressed as Kd, was 2.66 nM; the koff (commonly the first-order rate constant of dissociation) is 0.000146 s⁻¹; the kon (usually the second-order rate constant of association) is 55100 M⁻¹ s⁻¹. In assay [1], the Kd (in general, the constant that tells how readily two partners part at equilibrium) was 1.12 nM; the koff worked out at 0.000859 s⁻¹; the kon was 765000 M⁻¹ s⁻¹.

B2: ACI-8030-6106F5-Ab1 (antibody, V domains shown)
VH: QVQLQQSGPELVKPGASVKISCKASGYSFTTYYIHWMKQRPGQGPEWIGWIYPGRGYTKYNEKFKDKAAQTADTSSNTAYMQLSSLRSEDSAVYYCARDWETGFPYWGQGTLVTVSA
VL: DIVLTQSPASLAVSLGQRATISCKASQSVDYGGDSWLNWYQQKPGQPPKLLIYAASNLDSGIPARFGGSGSGTDFTLNIHPVEEEDAATYYCQQSGEDPFTFGGGTNLEIK
notes: mouse hybridoma mAb; VH/VL only; also called 6106F5B10
On to B2, for which, in the assay with alpha-synuclein fibrils, the Kd worked out at 16.7 nM, the koff turned out to be 0.000232 s⁻¹ and the kon came to 13900 M⁻¹ s⁻¹. In assay [1], this molecule came in with a dissociation constant Kd of 1.95 nM, a koff of 0.00023 s⁻¹ and a kon of 118000 M⁻¹ s⁻¹.

B3: ACI-7079-3106F2-Ab1 (antibody, V domains shown)
VH: EVQLQQSGAELVRPGASVKLSCTASGFNVKDDYMHWVKQRPEQGLEWIGWIDPENGDTEYASKFQGKATLTADTSSNTAYLQLSGLTSVDTAVYYCTTAGTSPYYFDYWGQGTTLTVSS
VL: DIVMTQSQKFMSTSVGDRVSVTCKASQNVGTNVAWYQQKVGQSPKALIYSASYRYSGVPDRFTGSGSGTDFTLTISNVQSEDLADYFCQQYNSYPLTFGSGTKLEIK
notes: mouse hybridoma mAb; VH/VL only; also called 3106F2C8
Turning to B3, in the assay with alpha-synuclein fibrils, the affinity, expressed as Kd, was 31.5 nM; the koff came to 0.000367 s⁻¹; the kon came out at 11700 M⁻¹ s⁻¹. In assay [1], this molecule showed a Kd of 392 nM, a koff of 0.135 s⁻¹ and a kon of 344000 M⁻¹ s⁻¹.

B4: ACI-8033-6403A4-Ab1 (antibody, V domains shown)
VH: EVQLVESGGGLVQPKGSLKLSCAASGFSFNTYAMNWVRQAPGKGLEWVARIRSKSNNYTTYYADSVKDRFTISRDDSESMLYLQMNNLKTEDTAMYYCVRTMDYWGQGTSVTVSS
VL: QIVLTQSPAIMSASLGEEITLTCSASSSISYMHWYQQKSGTSPKLLIHSTFNLASGVPSRFSGSGSGTFYSLTISSVEAEDAADYYCHQWSSYYTFGGGTKLEIK
notes: mouse hybridoma mAb; VH/VL only; also called 6403A4A3
As to B4, in the assay with alpha-synuclein fibrils, the Kd stood at 37.9 nM, the koff came out at 0.000599 s⁻¹ and the kon was determined as 15800 M⁻¹ s⁻¹. In assay [1], this molecule had a Kd of 96.4 nM, a koff of 0.044 s⁻¹ and a kon of 457000 M⁻¹ s⁻¹.

B5: ACI-8032-6304F3-Ab1 (antibody, V domains shown)
VH: QVQLQQSGAELARPGASVKLSCKASGYTFTSYGVSWVKQRTGQGLEWIGEIYPRSGNTYYNEKFKGKATLTADKSSSTAYMELRSLTSEDSAVYFCASESYYGDYDWYFDVWGTGTTVTVSS
VL: DVLMTQIPLSLPVSPGDQVSISCRSSQSIVHSNGNTYLEWYLQKPGQSPKPLIYKVSNRFSGVPDRFSGSGSGTDFTLKISRVEAEDLGVYYCFQGSHVPPTFGGGTKLEIK
notes: mouse hybridoma mAb; VH/VL only; also called 6304F3D12
In the assay with alpha-synuclein fibrils, B5 yielded a Kd of 40.6 nM, a koff of 0.000527 s⁻¹ and a kon of 13000 M⁻¹ s⁻¹. For the same molecule, in assay [1], the Kd was found to be 4.75 nM, the koff was determined as 0.016 s⁻¹ and the kon stood at 3.37e+06 M⁻¹ s⁻¹.

B6: ACI-8032-6301C8-Ab2 (antibody, V domains shown)
VH: QVQLQQSGAELARPGTSVKLSCKASGYTFTTYGISWVKQRTGQGLEWIGEIYPRSGNTYYNEKFKGKATLTADKPSSTAYMELRSLTSEDSAVYFCASESYYGDYAWYFDVWGTGTTVTVSS
VL: DVLMTQIPLSLPVSLGDQASISCRSSQSIVHSNGNTYLEWHLQKPGQSPKLLIYEVSNRFSGVPDRFSGSGSGTDFTLNISRVEAEDLGVYYCFQGSHVPPTFGGGTKLEIK
notes: mouse hybridoma mAb; VH/VL only; also called 6301C8G12
In the assay with alpha-synuclein fibrils, B6 came in with a Kd of 42.8 nM, a koff of 0.00355 s⁻¹ and a kon of 83000 M⁻¹ s⁻¹. In assay [1], this molecule had a Kd of 8.76 nM, a koff of 0.00329 s⁻¹ and a kon of 376000 M⁻¹ s⁻¹.

B7: ACI-8032-6307F1-Ab2 (antibody, V domains shown)
VH: QVQLQQSGAELARPGASVKLSCKASGYTFTSYGMSWVKQRTGQGLEWIGEIYPRSGNTYYNEKFKGKATLTSDKSSSTSYMELRSLTSEDSAVYFCASESYYGDYAWYFDVWGTGTTVTVSS
VL: DVLMTQTPLSLPVSLGDQASISCRSSQSVVHSNGITYLEWYLQKPGQSPKLLIYKVSNRFSGVPDRFSGSGSGTYFTLKISRVEAEDLGVYYCFQGSHVPPTFGGGTKLEIK
notes: mouse hybridoma mAb; VH/VL only; also called 6307F1H10
In the assay with alpha-synuclein fibrils, B7 registered a Kd of 26 nM, a koff of 0.000691 s⁻¹ and a kon of 26500 M⁻¹ s⁻¹. In assay [1], this molecule registered a Kd of 19 nM, an off-rate constant (koff) of 0.0248 s⁻¹ and a kon of 1.3e+06 M⁻¹ s⁻¹.

B8: ACI-8032-6301A10-Ab2 (antibody, V domains shown)
VH: QVQLQQSGAELARPGASVKLSCKASGYTFTSYGISWVKQRTGQGLEWIGEIYPRSGNTYYNEKFKGKATLTADKSSSTAYMELRSLTSEDSAVYFCASESYYGDYDWYFDVWGTGTTVTVSS
VL: DVLMTQTPLSLPVSLGDQASISCRSSHSIEHSNGNTYLEWCLQKPGQPPKFLIYKVSNRFSGVPDRFSGSGSGTDFTLRISRVEAEDLGVYYCFQGSHVPPTFGGGTKLEIK
notes: mouse hybridoma mAb; VH/VL only; also called 6301A10E12
In the assay with alpha-synuclein fibrils, B8 yielded a Kd of 2.69 nM, a koff of 0.000193 s⁻¹ and a kon of 71800 M⁻¹ s⁻¹. Moreover, in assay [1], the Kd amounted to 11.5 nM, the koff stood at 0.00517 s⁻¹ and the kon was found to be 450000 M⁻¹ s⁻¹.

B9: ACI-8032-6314A3-Ab3 (antibody, V domains shown)
VH: QVQLQQSGAELARPGASVKLSCKASGYTFTSYGVSWVKQRTGQGLEWIGEIYPRSGNTYYNEKFKGKATLTADKSSSTAYMELRSLTSEDSAVYFCASESYYGDYDWYFDVWGTGTTVTVSS
VL: DVLMTQIPLSLPVSPGDQVFISCRSSQSIVHSNGNTYLEWYLQKPGQSPKPLIYKVSNRFSGVPDRFSGSGSGTDFTLKISRVEAEDLGVYYCFQGSHVPPTFGGGTKLEIK
notes: mouse hybridoma mAb; VH/VL only; also called 6314A3E4
Turning to B9, in the assay with alpha-synuclein fibrils, the Kd turned out to be 41.5 nM, the koff was 0.000325 s⁻¹ and the kon turned out to be 7830 M⁻¹ s⁻¹. In assay [1], this molecule registered a Kd of 16.7 nM, a koff of 0.0382 s⁻¹ and a kon of 2.28e+06 M⁻¹ s⁻¹.

B10: ACI-7079-3112H1-Ab1 (antibody, V domains shown)
VH: EVQLQQSGPELVKPGASVKISCKASGYTFSDYFMNWVKQSHGKSLEWIGDINPNNGGSSYIQKFKGKATLTVDKSSTTAYMELRSLTSEDSAVYYCARGSNYAMDSWGQGTSVTVSS
VL: DIVMSQSPSSLAVSAGEKVTMSCKSSQSLLNSRTRKNYLAWYQQKPGQSPKLLIYWASTRESGVPDRFTGSGSGTDFTLTISSVQAEDLAVYYCKQSYDLWTFGGGTKLEIK
notes: mouse hybridoma mAb; VH/VL only; also called 3112H1F3
In the assay with alpha-synuclein fibrils, B10 displayed a Kd of 19.3 nM, a koff of 0.000216 s⁻¹ and a kon of 11200 M⁻¹ s⁻¹. Further, in assay [1], the Kd stood at 10.5 nM, the off-rate constant (koff) came to 0.00225 s⁻¹ and the kon turned out to be 214000 M⁻¹ s⁻¹.

B11: ACI-8033-6402E2-Ab2 (antibody, V domains shown)
VH: EVQLQHSGPDLVKPGASVKISCKASGYTFTDYYMNWVKQSHGKSLEWIGDINPNNGDTTYNQKFKGRATLTVDKSSSTAYMELRSLTSEDSAVYYCARSGSNYYAMDSWGQGTSVTVSS
VL: DIVMSQSPSSLAVSAGERVTMSCKSSQSLFNSRTRKNYLAWYQQKPGQSPKLLIYWASTRESGVPDRFTGSGSGTDFSLNISSVQAEDLAVYYCKQSYDLWTFGGGTKLEIK
notes: mouse hybridoma mAb; VH/VL only; also called 6402E2E4
Regarding B11, in the assay with alpha-synuclein fibrils, the affinity, expressed as Kd, was 134 nM; the koff came to 0.000987 s⁻¹; the kon was 7350 M⁻¹ s⁻¹. For the same molecule, in assay [1], binding was put at a Kd of 3.26 nM, the koff stood at 0.000651 s⁻¹ and the kon was determined as 200000 M⁻¹ s⁻¹.

B12: ACI-8032-6301G2-Ab2 (antibody, V domains shown)
VH: EVQLQQSGPELVKPGASVKISCKASGYTFTDYFMNWVKQSHGKSLEWIGDINPNIGVTNYNPKFKDRATLTVDKSSSSAYMELRSLTSEDSTVYYCARGGGSNPLYYAMDYWGQGTSVTVSS
VL: DIVMSQSPSSLAVSAGEKVTMSCKSSQSLLNSRTRKNYLAWYQQKPGQSPKLLIYWASTRESGVPDRFTGSGSGTDFTLTISSVQAEDLAVYFCKQSYDLWTFGGGTKLEIK
notes: mouse hybridoma mAb; VH/VL only; also called 6301G2D11
B12: in the assay with alpha-synuclein fibrils, the Kd is 3350 nM and the koff was 0.000353 s⁻¹. In assay [1], this molecule yielded a Kd of 606 nM, a koff of 0.000237 s⁻¹ and a kon of 390 M⁻¹ s⁻¹.

B13: ACI-8031-6207G10-Ab1 (antibody, V domains shown)
VH: QVQLQQSGAELVKPGASVKISCKASGYAFSSYWMNWVKQRPGKGLEWIGQIYPGDGDTNYNGKFKGKATLTADRSSSTAYMQLSSLTSEDSAVYFCAITHYDYWGQGTTLTVSS
VL: DILLTQSPAILSVSPGDRVSFSCRASQSIGTRIHWYQQRTNGSPRLLIKYASESISGTPSRFSGSGSGTDFTLSINSVESEDIADYYCQQSNSWPLTFGAGTKLELK
notes: mouse hybridoma mAb; VH/VL only; also called 6207G10E6
In the assay with alpha-synuclein fibrils, B13 had a Kd of 13.3 nM, a koff of 0.00015 s⁻¹ and a kon of 11300 M⁻¹ s⁻¹. For the same molecule, in assay [1], the Kd came out at 3.67 nM, the koff amounted to 0.000314 s⁻¹ and the kon worked out at 85300 M⁻¹ s⁻¹.
